Assay results from doi:10.1101/2024.10.15.618391.
Values joined by “and” are separate entries in the source; they are usually repeats but may differ in a detail not shown here. Equal values may be shown once. Read-outs that look alike come from different tables or passages of the source.

Legend:
Assay in all cases: BLI
[1] = biological target: His6-SeSepF (Spiroplasma eriocheiris SepF) (Spiroplasma eriocheiris)
[2] = biological target: His6-SeSepF (Spiroplasma eriocheiris SepF) (Spiroplasma eriocheiris); remark: listed apart in the source
[3] = biological target: His6-SeSepF (Spiroplasma eriocheiris SepF) (Spiroplasma eriocheiris); remark: listed apart in the source

| Substance | Kd [1] | Kd [2] | Kd [3] |
| --- | --- | --- | --- |
| Spiroplasma eriocheiris FtsZ, His-tag removed (from UniProt A0A0H3XMR3 1-411) (natural protein) | 53900 nM | 1130 nM | 1040 nM |
| SeFtsZ L272E mutant (from UniProt A0A0H3XMR3 1-411) (natural protein) | – | 980 nM and 700 nM | – |
